Target: GST-tagged T. marianensis hinT H100N (Thermaerobacter marianensis)
Assay: BLI; GST-hinT (90 nM) immobilised on anti-GST biosensors; sucA-AMP 500 to 7.81 nM, unmodified sucA at 500 nM; 10 mM Tris pH 8, 150 mM NaCl, 0.1% Triton X-100; KD from steady-state responses, one site

B1: AMPylated sucA (enzyme)
chain: MQNSALKAWLDSSYLSGANQSWIEQLYEDFLTDPDSVDANWRSTFQQLPGTGVKPDQFHSQTREYFRRLAKDASRYSSTISDPDTNVKQVKVLQLINAYRFRGHQHANLDPLGLWQQDKVADLDPSFHDLTEADFQETFNVGSFASGKETMKLGELLEALKQTYCGPIGAEYMHITSTEEKRWIQQRIESGRATFNSEEKKRFLSELTAAEGLERYLGAKFPGAKRFSLEGGDALIPMLKEMIRHAGNSGTREVVLGMAHRGRLNVLVNVLGKKPQDLFDEFAGKHKEHLGTGDVKYHMGFSSDFQTDGGLVHLALAFNPSHLEIVSPVVIGSVRARLDRLDEPSSNKVLPITIHGDAAVTGQGVVQETLNMSKARGYEVGGTVRIVINNQVGFTTSNPLDARSTPYCTDIGKMVQAPIFHVNADDPEAVAFVTRLALDFRNTFKRDVFIDLVCYRRHGHNEADEPSATQPLMYQKIKKHPTPRKIYADKLEQEKVATLEDATEMVNLYRDALDAGDCVVAEWRPMNMHSFTWSPYLNHEWDEEYPNKVEMKRLQELAKRISTVPEAVEMQSRVAKIYGDRQAMAAGEKLFDWGGAENLAYATLVDEGIPVRLSGEDSGRGTFFHRHAVIHNQSNGSTYTPLQHIHNGQGAFRVWDSVLSEEAVLAFEYGYATAEPRTLTIWEAQFGDFANGAQVVIDQFISSGEQKWGRMCGLVMLLPHGYEGQGPEHSSARLERYLQLCAEQNMQVCVPSTPAQVYHMLRRQALRGMRRPLVVMSPKSLLRHPLAVSSLEELANGTFLPAIGEIDELDPKGVKRVVMCSGKVYYDLLEQRRKNNQHDVAIVRIEQLYPFPHKAMQEVLQQFAHVKDFVWCQEEPLNQGAWYCSQHHFREVIPFGASLRYAGRPASASPAVGYMSVHQKQQQDLVNDALNVE
modifications: multiple AMPylation sites, residues not given
A Kd of 9 nM was found for B1 in this work.
